Test results from the supplement of paper PMC12764529.
± gives the half width of the 95% confidence interval.

Assay: folding stability dG unfold from trypsin proteolysis; higher = more stable
Method in brief: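 K50 was inferred by Bayesian fitting of sequencing counts obtained after protease digestion of designed mini-proteins. Unfolding free energy was derived by comparison with a sequence-predicted unfolded-state K50 and a shared folded-state K50, for each protease or both combined. The mini-proteins were under 80 residues, had no cysteine, were carried in a PA-tagged cDNA display construct, and were kept only if AlphaFold2 dimer inter-PAE exceeded 15.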

With “SASSFPPGSTATLTVRVTDPAGTATTTLTIPLSVDPSTGKAVSLEEVYEILKELGVDPANVTITSLTVSSAG [r14_93_JUSTAS]” as the sequence, how does the “folding stability dG unfold” value read?
Its value is 3.07 ± 0.088 kcal/mol.

Which “folding stability dG unfold” value does the source give for “SAGGSAGGKILVIEIEVDSPEKAVEKAKEIVKELGLPESVKIKEIVFFKEEGDKYRALVLVDLDSAGGSAGG [r6_282_TrMRF]” here?
The value was 3.66 ± 0.23 kcal/mol.

With “SAGGSAGGSSLKPGQELELTLTLRVEVEVEVYENGKPVERYRVEREVRLTLRLKLPAASLEDLSAGGSAGGS [r20_14_TrROS_Hall]” as the sequence, how does the “folding stability dG unfold” value read?
Its value is 4.06 ± 0.14 kcal/mol.

For “SAGGSASLQTSTASVSPGALEKAIEAAKAAPPGTAVSVSFGDPVVGTPRPVTLTVDSAGNLVEITGSAGGSA [r15_228_JUSTAS]”, which “folding stability dG unfold” value is on record?
Its value is 0.376 ± 0.029 kcal/mol.

With “SMEITLLSTDPTPGGMTTALWETPNRKVTIFKPPSENYYIVTVEIPGTGKTKTLRFPKNVSPEEIVKKLGSA [r9_522_JUSTAS]” as the sequence, how does the “folding stability dG unfold” value read?
Its value is 1.88 ± 0.034 kcal/mol.

For “SPQNLVRIAEIKVELKLDGKKYIITIEVYRPPDSDEVIVRVKVIDPSSDKSSPELEKIAKELEKKIEEELKS [r1_229_JUSTAS]”, which “folding stability dG unfold” value is on record?
Its value is 2.53 ± 0.19 kcal/mol.

Which “folding stability dG unfold” value does the source give for “SAGGSAGGWFYIMFPIPPGYKVEAEWKFPNGPKVKSEIHPDGPIMITIPPGMANMPDFEIKIEPSAGGSAGG [r6_237_TrROS]” here?
The value was 2.35 ± 0.12 kcal/mol.

With “STLLEEAKAQAEAYLKAAGLELAPGDVVTLTVPYPGPLTLEITVHPGEKKLEITATDASTPTTHTLTFDESA [r9_426_JUSTAS]” as the sequence, how does the “folding stability dG unfold” value read?
The value was 0.831 ± 0.039 kcal/mol.

With “SAGGSLPPGQWIFMIQLEIEPPNGNTWPFNIMVPPDNVEEQAKEIADRLRENGLKVKIEITDVMPVSAGGSA [r2_274_TrROS]” as the sequence, how does the “folding stability dG unfold” value read?
Its value is 2.22 ± 0.13 kcal/mol.

With “SAGGSASLEEVIESVTKPLGAKGEIDPETGVTYVQDPSGENLTLETEDGRPLKVTYEPEGKWTAVESAGGSA [r15_256_JUSTAS]” as the sequence, how does the “folding stability dG unfold” value read?
The value was 0.301 ± 0.046 kcal/mol.

For “SAGGSAGGPEITIIIGNAGPIEVALKTAKEIKKILEEKGYPNVKIPILIIPFGSPEKLKEALGGSAGGSAGG [r6_476_TrMRF]”, which “folding stability dG unfold” value is on record?
The value was 0.0997 ± 0.1 kcal/mol.

For “SAGGSAGGSNPRYRIVLPISREQLEELGLTPEQVAEAIREAFPSLSPDTRFYFPEDGNLVVVGSAGGSAGGS [r12_50_TrMRF]”, which “folding stability dG unfold” value is on record?
Its value is 1.58 ± 0.024 kcal/mol.

With “SAGKTIVVPTEEEAEKLAKELAEETGKEVEIVKVEKEKKKDGYEVYTIKVKLKDNNKTIEIKIVRPKEKSAG [r5_173_TrROS_Hall]” as the sequence, how does the “folding stability dG unfold” value read?
Its value is 1.52 ± 0.17 kcal/mol.

Which “folding stability dG unfold” value does the source give for “SAGGSAGGSTIDITLPDLDEEEIREYLKELFPDVEVTIEYDPSTNTYTLKVGGDEVVVTRLPPNSAGGSAGG [r6_609_JUSTAS]” here?
Its value is 3.25 ± 0.086 kcal/mol.

For “SAGGEEVILTLPDGSPVRVIPDEGTASFELPGYRVETEVLPDGRIRLTVRDPAAGALVRELDLGLLRSAGGS [r16_760_JUSTAS]”, which “folding stability dG unfold” value is on record?
Its value is 0.158 ± 0.039 kcal/mol.

With “SAGGSAGGSKTVYRITIYNEKTGKKLVIEIEESMSEEEKEQKIKDLLKKLLPPGAKIKIEKVPSAGGSAGGS [r20_213_TrROS_Hall]” as the sequence, how does the “folding stability dG unfold” value read?
The value was 3.34 ± 0.44 kcal/mol.

With “SALPPGTTVTYTFYDPATGALVTVTVTTLPDGTVRVTLTVYDPSTGETTTVTFTVDGATLDELLDFIRAGSA [r9_618_TrMRF]” as the sequence, how does the “folding stability dG unfold” value read?
The value was 3.77 ± 0.3 kcal/mol.

Which “folding stability dG unfold” value does the source give for “SAGGSSITVPYPEGYEITVEVFPNYATITTKTPSSTLTKTVSFSTPVTVKTPSDKPVTINVPSPEVSAGGSA [r2_57_JUSTAS]” here?
Its value is 0.303 ± 0.034 kcal/mol.

Which “folding stability dG unfold” value does the source give for “SAGGVVYYATFTIYDPKRKLPNGELAYEETPIYKKFDPKEIEKFIKELKDKLKKEGRKIKAEITKVLSAGGS [r8_10_JUSTAS]” here?
The value was 1.28 ± 0.15 kcal/mol.

Which “folding stability dG unfold” value does the source give for “SAGQTITFELKDPDITPEELQKKLQKRFGMKPMNIKPVEPDPDGWRFVIEFPENGGTRTFPWEEIRELISAG [r5_550_TrROS]” here?
Its value is 0.861 ± 0.11 kcal/mol.

Which “folding stability dG unfold” value does the source give for “SAGGSAGGSAVVSVSPDGYLRLAYYPETGELRELPPDVSVEEFLEAFPDVVVLAAPVAPTPESAGGSAGGSA [r18_53_TrMRF]” here?
The value was 0.961 ± 0.016 kcal/mol.

With “SAGMSMSVSVTKDPNSNSITIKVTMPVEPDAVLDLPIKVEVPEKEYEMTVEVTLSPDGLASMTGTITLPSAG [r5_596_JUSTAS]” as the sequence, how does the “folding stability dG unfold” value read?
The value was 2.74 ± 0.15 kcal/mol.

With “SIKLSNGETIEYEPSPNKTYTIKHPDGRVVKILKVEREKDKYTVEIQFDDGSTKTIEIPPDKPEIIEKELLS [r1_66_JUSTAS]” as the sequence, how does the “folding stability dG unfold” value read?
Its value is 1.37 ± 0.027 kcal/mol.

For “SAGGSAGGSSTTPVTITVPESILDEIKKKAEELGIKVEVEIKESPENKKYATVTIEIPENVELSAGGSAGGS [r12_653_JUSTAS]”, which “folding stability dG unfold” value is on record?
The value was 0.935 ± 0.081 kcal/mol.

For “SAGGGGSMTIVVPVEVSPETSEEEVRKRAEEIARPIAEELGKKVSIEVSREEDPEGGRRWTATITILSAGGS [r16_279_JUSTAS]”, which “folding stability dG unfold” value is on record?
The value was 2.88 ± 0.056 kcal/mol.

With “SAGGSAGGSAGGMLILVEVNGEKRLLEADSLEDALAKLPPGATVTRVEIFEVEEVELPESAGGSAGGSAGGS [r10_13_TrROS_Hall]” as the sequence, how does the “folding stability dG unfold” value read?
Its value is 2.36 ± 0.067 kcal/mol.

For “SAGGSKTIEVEIKVPPGMTPEEVAKKLAEELKKAGIEVKVVKVEYDEEKGTVRITLDDGSEVELKVSAGGSA [r2_242_TrROS_Hall]”, which “folding stability dG unfold” value is on record?
The value was 1.35 ± 0.093 kcal/mol.

Which “folding stability dG unfold” value does the source give for “SAGGSAGGSAGGPEVTLRLRLEVEVRVVVLKDGKLEEKTFRFELEVEVRFEPGMSLEELSAGGSAGGSAGGS [r10_633_TrROS_Hall]” here?
The value was 3.23 ± 0.15 kcal/mol.

For “SAGGMPLDSPEVQRRLAALKEALAKAEALREAGLEVKVVSIEFDPETREVTIEVEVRPAPPPPPEEPSAGGS [r8_277_TrROS_Hall]”, which “folding stability dG unfold” value is on record?
The value was 1.81 ± 0.1 kcal/mol.

Which “folding stability dG unfold” value does the source give for “SMNPIGNPITLPDGTTITIIPDLGLILIYDPETGTFIARLILVDENGIPHIFPFIGKIDPETGEIIEIDPSA [r9_122_TrMRF]” here?
Its value is 3.31 ± 0.11 kcal/mol.

Which “folding stability dG unfold” value does the source give for “SAGGGANIEGVEIYRIPDLDKYLVVVPSPAPEGAEITITVRLPNGPFTKTFVAKYRPLPGNRHVFVGSAGGS [r8_195_TrMRF]” here?
The value was 1.23 ± 0.056 kcal/mol.
